In data set [1] the test system is purified HD CD4 T cells. Format: cell-based, human.
Data set [2] concerns purified HD CD4 T cells. In words: Inhibition of IL-7-induced STAT5 phosphorylation and nuclear translocation. The format is cell-based, human. The following applies: for effect on IL-7 induced nuclear translocation of phosphoSTAT5 (NT pSTAT5): CD4 T cells, IL-7 stimulation. How it is done: CD4 T-cells were purified by negative selection as already described (10) then activated with 2 nM recombinant glycosylated human IL-7 (Cytheris) or 40 μg PHA (Sigma). The confocal and STED microscopy used to study cell surface microdomains (MMD) and phospho-STAT5 cellular compartment distribution has already been described (10, 12). FCS analysis of protein diffusion at the surface of living cells has also been described (10, 12
Cells were then plated on polylysine-coated glass slides for 10 min then activated by 15 min IL-7 (2 nM) or not for control (NS), then fixed by PFA (PFA, 1.5%, 15 min at 37° C. followed by 15 min at room temperature) and permeabilization by methanol (90% at −20° C.). Cells were equilibrated one hour in PBS/SVF 5% then phospho-STAT5 was then stained by rabbit anti-STAT5 labelled with goat anti-rabbit-Atto642 and analyzed by FACS or STED microscopy.
VP plasma containing PLA2sGIB was first incubated with purified HD CD4 T cells (20 min) before stimulation by IL-7 (2 nM, 15 min.). Cells were then plated on polylysine coated glass slides before fixation by PFA (1.5%) and permeabilization by methanol (90% at −20° C.). pSTAT5 was then stained by rabbit anti-STAT5 labelled with goat anti-rabbit-Atto642 and analyzed by FACS or pulsed STED microscopy.

Data set [3] can be described thus: Enz Check PLA2 enzymatic assay. The following applies: for enzymatic activity (in words): recombinant PLA2 proteins produced in E. coli; for enzymatic activity of mutant vs recombinant porcine PLA2 GIB: each protein at 200 microM, FIG. 12.
Experimental: The assay was performed with the Enz Check PLA2 assay kit from Life Technologies (ref.: E102147). […] The PLA2 activity is followed by the intensity increase of a single wavelength at 515 nm. PLA2 is detected by changes in the emission intensity ratio at 515/575 nm with excitation at 460 nm. Specific activities are expressed in amount of fluorescent substrate (U) obtained per second and per μg of enzyme in solution.
Each protein was used at 200 microM.
The next data set deals with T1, human GIBsPLA2 (Homo sapiens, UniProt P04054).
T1 construct: from tissue
In words: Inhibitor test: inhibition of IL-7-induced pSTAT5 nuclear translocation by viremic plasma or PLA2 GIB. Format: cell-based. The following applies: 100 nM inhibitor, human PLA2G1B, FIG. 16.

T1 sequence (P04054 23-148): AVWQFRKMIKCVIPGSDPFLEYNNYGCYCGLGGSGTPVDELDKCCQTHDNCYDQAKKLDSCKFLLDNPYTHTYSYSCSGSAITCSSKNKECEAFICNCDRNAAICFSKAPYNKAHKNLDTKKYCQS

For “commercial purified porcine GIBsPLA2: commercial purified porcine GIBsPLA2”, in the data set on purified HD CD4 T cells [1], the “induction of abnormal membrane microdomains (aMMD)” value was “induces abnormal MDM”. For the same molecule, the “effect on IL-7 induced nuclear translocation of phosphoSTAT5 (NT pSTAT5)” value in the data set with purified HD CD4 T cells [2] is on record as “block IL-7 pSTAT5 nuclear translocation”.
Take “hPLA2 IB: recombinant human PLA2 IB (in E. coli)”: in data set [3], the Specific activity came to 10694.57 U/ug/s and the “enzymatic activity (in words)” value was “potent enzymatic activity”.
Consider “hPLA2 IID: recombinant human PLA2 IID (E. coli)”, for which, in data set [3], the Specific activity is listed as 445.21 U/ug/s and the “enzymatic activity (in words)” value is “not active”.
For “mutant H48Q: porcine PLA2 GIB mutant, histidine at position 48 replaced by glutamine, produced in E. coli”, the “induction of abnormal membrane microdomains (aMMD)” value in the data set on purified HD CD4 T cells [1] is “lost the ability”. Further, in the data set with purified HD CD4 T cells [2], the “effect on IL-7 induced nuclear translocation of phosphoSTAT5 (NT pSTAT5)” value was “lost the ability”. For the same molecule, the results for the “enzymatic activity of mutant vs recombinant porcine PLA2 GIB” value in data set [3] and in data set [3] (listed as pPLA2GIB H48Q) were “lost all of its enzymatic activity” and “Absence of activity”, respectively.
The molecule “pPLA2 IB: recombinant porcine PLA2 IB (in E. coli)” returned a Specific activity in data set [3] of 10353.57 U/ug/s.
Same read-out and setting: under “ppPLA2 IB: Purified porcine pancreas PLA2 IB” stands 7694.31 U/ug/s.

B1: recombinant PLA2 soluble receptor: soluble murine receptor specific for PLA2 GIB, SEQ ID NO: 22 (protein)
chain: MVQWLAMLQLLWLQQLLLLGIHQGIAQDLTHIQEPSLEWRDKGIFIIQSESLKTCIQAGKSVLTLENCKQPNEHMLWKWVSDDHLFNVGGSGCLGLNISALEQPLKLYECDSTLISLRWHCDRKMIEGPLQYKVQVKSDNTVVARKQIHRWIAYTSSGGDICEHPSRDLYTLKGNAHGMPCVFPFQFKGHWHHDCIREGQKEHLLWCATTSRYEEDEKWGFCPDPTSMKVFCDATWQRNGSSRICYQFNLLSSLSWNQAHSSCLMQGGALLSIADEDEEDFIRKHLSKVVKEVWIGLNQLDEKAGWQWSDGTPLSYLNWSQEITPGPFVEHHCGTLEVVSAAWRSRDCESTLPYICKRDLNHTAQGILEKDSWKYHATHCDPDWTPFNRKCYKLKKDRKSWLGALHSCQSNDSVLMDVASLAEVEFLVSLLRDENASETWIGLSSNKIPVSFEWSSGSSVIFTNWYPLEPRILPNRRQLCVSAEESDGRWKVKDCKERLFYICKKAGQVPADEQSGCPAGWERHGRFCYKIDTVLRSFEEASSGYYCSPALLTITSRFEQAFITSLISSVAEKDSYFWIALQDQNNTGEYTWKTVGQREPVQYTYWNTRQPSNRGGCVVVRGGSSLGRWEVKDCSDFKAMSLCKTPVKIWEKTELEERWPFHPCYMDWESATGLASCFKVFHSEKVLMKRSWREAEAFCEEFGAHLASFAHIEEENFVNELLHSKFNWTQERQFWIGFNRRNPLNAGSWAWSDGSPVVSSFLDNAYFEEDAKNCAVYKANKTLLPSNCASKHEWICRIPRDVRPKFPDWYQYDAPWLFYQNAEYLFHTHPAEWATFEFVCGWLRSDFLTIYSAQEQEFIHSKIKGLTKYGVKWWIGLEEGGARDQIQWSNGSPVIFQNWDKGREERVDSQRKRCVFISSITGLWGTENCSVPLPSICKRVKIWVIEKEKPPTQPGTCPKGWLYFNYKCFLVTIPKDPRELKTWTGAQEFCVAKGGTLVSIKSELEQAFITMNLFGQTTNVWIGLQSTNHEKWVNGKPLVYSNWSPSDIINIPSYNTTEFQKHIPLCALMSSNPNFHFTGKWYFDDCGKEGYGFVCEKMQDTLEHHVNVSDTSAIPSTLEYGNRTYKIIRGNMTWYAAGKSCRMHRAELASIPDAFHQAFLTVLLSRLGHTHWIGLSTTDNGQTFDWSDGTKSPFTYWKDEESAFLGDCAFADTNGRWHSTACESFLQGAICHVVTETKAFEHPGLCSETSVPWIKFKGNCYSFSTVLDSRSFEDAHEFCKSEGSNLLAIRDAAENSFLLEELLAFGSSVQMVWLNAQFDNNNKTLRWFDGTPTEQSNWGLRKPDMDHLKPHPCVVLRIPEGIWHFTPCEDKKGFICKMEAGIPAVTAQPEKGLSHSIVPVTVTLTLIIALGIFMLCFWIYKQKSDIFQRLTGSRGSYYPTLNFSTAHLEENILISDLEKNTNDEEVRDAPATESKRGHKGRPICISP
modifications: soluble receptor
Turning to B1, the “effect on activity of PLA2sGIB on NT of pSTAT5” value was “significantly block the negative effect of PLA2sGIB on the NT of pSTAT5” with human GIBsPLA2 and “inhibits the activity of human PLA2G1B” in the data set with human GIBsPLA2 (listed as sMR).

B2: hPLA2 IIA: recombinant human PLA2 IIA (in E. coli) (protein, UniProt P14555 21-144, looked up)
Phospholipase A2, membrane …: NLVNFHRMIKLTTGKEAALSYGFYGCHCGVGGRGSPKDATDRCCVTHDCCYKRLEKRGCGTKFLSYKFSNSGSRITCAKQDSCRSQLCECDKAAATCFARNKTTYNKKYQYYSNKHCRGSTPRC
Take B2: in data set [3], the Specific activity was found to be 214.93 U/ug/s and the “enzymatic activity (in words)” value was “not active”.

B3: hPLA2 X: recombinant human PLA2 X (in E. coli) (protein, UniProt O15496 43-165, looked up)
Group 10 secretory …: GILELAGTVGCVGPRTPIAYMKYGCFCGLGGHGQPRDAIDWCCHGHDCCYTRAEEAGCSPKTERYSWQCVNQSVLCGPAENKCQELLCKCDQEIANCLAQTEYNLKYLFYPQFLCEPDSPKCD
Regarding B3, in data set [3], the Specific activity was 3318.97 U/ug/s and the “enzymatic activity (in words)” value is on record as “very limited activity”.

B4: IL-7: recombinant glycosylated human IL-7 (Cytheris) (protein, UniProt P13232 26-177, looked up)
Interleukin-7: DCDIEGKDGKQYESVLMVSIDQLLDSMKEIGSNCLNNEFNFFKRHICDANKEGMFLFRAARKLRQFLKMNSTGDFDLHLLKVSEGTTILLNCTGQVKGRKPAALGEAQPTKSLEENKSLKEQKKLNDLCFLKRLLQEIKTCWNKILMGTKEH
modifications: glycosylated
Consider B4, for which, in the data set with purified HD CD4 T cells [1], the MMD size was determined as 90 nm and the “number of MMD per CD4 T cell” value turned out to be 300 MMD/cell. The “phospho-STAT5 found in the nucleus” value in the data set with purified HD CD4 T cells [2] (HD CD4 T cells, five minutes following IL-7 stimulation) worked out at 50%.

For the origin of these results see patent US11365264B2, “Therapeutic methods and compositions” (INSTITUT PASTEUR, priority 2013, dated 2022).
